Reference: patent US20220089656A1 (published 2022)

Molecular target: T1, human ASIP (agouti-signaling protein, RnD Systems) (human, UniProt P42127 23-132)
T1 construct: Coated at 2 ug/ml; also called ASIP protein
T1 sequence (looked up): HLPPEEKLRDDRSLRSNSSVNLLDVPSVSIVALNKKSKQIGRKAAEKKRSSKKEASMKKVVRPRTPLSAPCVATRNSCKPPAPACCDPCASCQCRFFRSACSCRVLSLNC
Test: ELISA: Protein M-HRP on coated human ASIP without antibody

B1: Protein M horseradish peroxidase (HRP) fusion protein (other)
chain: EQKLISEEDLAANQLTPTFYDNSCPNVSNIVRDTIVNELRSDPRIAASILRLHFHDCFVNGCDASILLDNTTSFRTEKDAFGNANSARGFPVIDRMKAAVESACPRTVSCADLLTIAAQQSVTLAGGPSWRVPLGRRDSLQAFLDLANANLPAPFFTLPQLKDSFRNVGLNRSSDLVALSGGHTFGKNQCRFIMDRLYNFSNTGLPDPTLNTTYLQTLRGLCPLNGNLSALVDFDLRTPTIFDNKYYVNLEEQKGLIQSDQELFSSPNATDTIPLVRSFANSTQTFFNAFVEAMDRMGNITPLTGTQGQIRLNCRVVNSNSGGGGSGGGGSGGGGSTNLVNQSGYALVASGRSGNLGFKLFSTQSPSAEVKLKSLSLNDGSYQSEIDLSGGANFREKFRNFANELSEAITNSPKGLDRPVPKTEISGLIKTGDNFITPSFKAGYYDHVASDGSLLSYYQSTEYFNNRVLMPILQTTNGTLMANNRGYDDVFRQVPSFSGWSNTKATTVSTSNNLTYDKWTYFAAKGSPLYDSYPNHFFEDVKTLAIDAKDISALKTTIDSEKPTYLIIRGLSGNGSQLNELQLPESVKKVSLYGDYTGVNVAKQIFANVVELEFYSTSKANSFGFNPLVLGSKTNVIYDLFASKPFTHIDLTQVTLQNSDNSAIDANKLKQAVGDIYNYRRFERQFQGYFAGGYIDKYLVKNVNTNKDSDDDLVYRSLKELNLHLEEAYREGDNTYYRVNENYYPGASIYENERASRDSEFQNEILKRAEQNGVTFDENIKRITASGKYSVQFQKLENDTDSSLERMTKAVEGLVTVIGEEKFETVDITGVSSDTNEVKSLAKELKTNALGVKLKL
notes: also called Protein M-HRP
B1: no binding.
